Laboratory results taken from PMC5913134, “The IL-33-PIN1-IRAK-M axis is critical for type 2 immunity in IL-33-induced allergic airway inflammation” (Nature Communications, 2018).

Biological target: PIN1 (GST-PIN1, GFP-PIN1, 15N-PIN1-WW) (UniProt Q13526)
Experiment: co-IP with anti-GFP, blot
Settings: reference: wild type; sites S110

binding against the reference: lost
Substance: IRAK-M (transfected constructs and synthetic peptides) (from UniProt Q9Y616) S110A
